Molecular target: T1, MAGE-A2 peptide on HLA-DPA1*01:03 / HLA-DPB1*04:01 (human)
T1 peptide: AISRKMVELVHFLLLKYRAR
Assay: multimer staining

binding result: recognises
B1: 06-MAGE-A2108-127 TCR (TCR, V domains shown)
Valpha: QKVTQAQTEISVVEKEDVTLDCVYETRDTTYYLFWYKQPPSGELVFLIRRNSFDEQNEISGRYSWNFQKSTSSFNFTITASQVVDSAVYFCALSVGTYKYIFGTGTRLKVLA
Vbeta: DTGVSQNPRHKITKRGQNVTFRCDPISEHNRLYWYRQTLGQGPEFLTYFQNEAQLEKSRLLSDRFSAERPKGSFSTLEIQRTEQGDSAMYLCASSPGTGGRETQYFGPGTRLLVL
